Assay [1] has as its target GST-VAMP2 harbouring only the SNARE motif (VAMP2 lacking the first 30 amino acids) (Rattus norvegicus (Rat), UniProt P63045). Description: GST pull-down, immunoblot.
In assay [2] the target is GST fused to the cytosolic domain of VAMP2 (Rattus norvegicus (Rat), UniProt P63045). Nature of the assay: GST pull-down, immunoblot. On the technique in general: In western blotting, separated proteins are transferred to a membrane and probed.
GST fused to the cytosolic domain of VAMP2, sequence (P63045 1-92): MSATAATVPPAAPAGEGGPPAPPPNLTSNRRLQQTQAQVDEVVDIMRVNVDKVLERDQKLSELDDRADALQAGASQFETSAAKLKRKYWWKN

GST-VAMP2 harbouring only the SNARE motif (VAMP2 lacking the first 30 amino acids), sequence (P63045 31-92): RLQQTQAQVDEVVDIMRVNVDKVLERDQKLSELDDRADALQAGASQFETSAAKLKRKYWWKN

B1: Munc18c, N-terminal His6-fusion protein (protein)
chain: MAPPVSERGLKSVVWRKIKTAVFDDCRKEGEWKIMLLDEFTTKLLSSCCKMTDLLEEGITVIENIYKNREPVRQMKALYFISPTPKSVDCFLRDFGSKSEKKYKAAYIYFTDFCPDSLFNKIKASCSKSIRRCKEINISFIPQESQVYTLDVPDAFYYCYSPDPSNASRKEVVMEAMAEQIVTVCATLDENPGVRYKSKPLDNASKLAQLVEKKLEDYYKIDEKGLIKGKTQSQLLIIDRGFDPVSTVLHELTFQAMAYDLLPIENDTYKYKTDGKEKEAVLEEDDDLWVRVRHRHIAVVLEEIPKLMKEISSTKKATEGKTSLSALTQLMKKMPHFRKQISKQVVHLNLAEDCMNKFKLNIEKLCKTEQDLALGTDAEGQRVKDSMLVLLPVLLNKNHDNCDKIRAVLLYIFGINGTTEENLDRLIHNVKIEDDSDMIRNWSHLGVPIVPPSQQAKPLRKDRSAEETFQLSRWTPFIKDIMEDAIDNRLDSKEWPYCSRCPAVWNGSGAVSARQKPRTNYLELDRKNGSRLIIFVIGGITYSEMRCAYEVSQAHKSCEVIIGSTHILTPRKLLDDIKMLNKSKDKVSFKDE
On to B1, for which the binding result in assay [1] and in assay [2] was “binds” each time.

Source of the values: publication PMC2605266 (2008).
